Laboratory results published in doi:10.1101/2019.12.17.879908.

Tests used:
[1] = molecular target: Dimethylformamidase (DMFase) large subunit expressed and purified without the small subunit (Paracoccus sp. strain DMF); assay: SEC
[2] = molecular target: Dimethylformamidase (DMFase) α2β2 complex, recombinant wild type (Paracoccus sp. strain DMF); assay: cryo-EM structure

“Dimethylformamidase (DMFase) large subunit expressed and purified without the small subunit (natural protein)” gave a stoichiometry N [1] of 2.
In the case of “Dimethylformamidase (DMFase) α2β2 complex, recombinant wild type”, the stoichiometry N [2] is reported as 2.
